What all share (test): SPR
(Surface plasmon resonance follows binding to a sensor surface in real time, without labels.)

The target in assay [1] is CD3/CD20 mG1KD D265A bispecific antibody (not stated | mouse).
Assay [2] deals with CD3 mG2a D265A (not stated | mouse).
For assay [3], the target named is CD3 mG2a (not stated | mouse).
Assay [4] deals with CD3 mG1 D265A (not stated | mouse).
The target of assay [5] is CD3/CD20 mG2aH4 bispecific antibody (not stated | mouse).
Assay [6] shares this target. The source holds these as a separate data set.
In assay [7] the target is CD3 mG2a (not stated | mouse). This is another data set of the same source.

In article PMC6927765 one finds Kd data, which are given here for 5 molecules.

Like-named read-outs stand apart in the source and are kept apart here.

In the case of “Mouse FcRn (from UniProt Q61559 22-365; P01887 21-119) (receptor)”, the dissociation constant Kd (as a rule, the constant that tells how readily two partners part at equilibrium) in assay [1] was 670 nM; in assay [2] it was 310 nM; in assay [3] it was 320 nM; in assay [4] it was 640 nM.

Turning to “Mouse Fc gamma receptor FCGR2 (from UniProt P08101 30-330)”, the Kd was determined as 1990 nM in assay [5] and 1570 nM in assay [3].

B1: Mouse Fc gamma receptor FCGR3 (receptor)
chain: ALPKAVVKLDPPWIQVLKEDMVTLMCEGTHNPGNSSTQWFHNGRSIRSQVQASYTFKATVNDSGEYRCQMEQTRLSDPVDLGVISDWLLLQTPQRVFLEGETITLRCHSWRNKLLNRISFFHNEKSVRYHHYKSNFSIPKANHSHSGDYYCKGSLGSTQHQSKPVTITVQDPATTSSISLVWYHTAFSLVMCLLFAVDTGLYFYVRRNLQTPREYWRKSLSIRKHQAPQDK
Take B1: the Kd in assay [6] came out at 1030 nM; in assay [7], 625 nM.

B2: Mouse Fc gamma receptor FCGR1 (receptor)
chain: EVVNATKAVITLQPPWVSIFQKENVTLWCEGPHLPGDSSTQWFINGTAVQISTPSYSIPEASFQDSGEYRCQIGSSMPSDPVQLQIHNDWLLLQASRRVLTEGEPLALRCHGWKNKLVYNVVFYRNGKSFQFSSDSEVAILKTNLSHSGIYHCSGTGRHRYTSAGVSITVKELFTTPVLRASVSSPFPEGSLVTLNCETNLLLQRPGLQLHFSFYVGSKILEYRNTSSEYHIARAEREDAGFYWCEVATEDSSVLKRSPELELQVLGPQSSAPVWFHILFYLSVGIMFSLNTVLYVKIHRLQREKKYNLEVPLVSEQGKKANSFQQVRSDGVYEEVTATASQTTPKEAPDGPRSSVGDCGPEQPEPLPPSDSTGAQTSQS
Regarding B2, the Kd is 33 nM in assay [6] and 21 nM in assay [7].

B3: Mouse Fc gamma receptor FCGR4 (receptor)
chain: GLQKAVVNLDPKWVRVLEEDSVTLRCQGTFSPEDNSIKWFHNESLIPHQDANYVIQSARVKDSGMYRCQTALSTISDPVQLEVHMGWLLLQTTKWLFQEGDPIHLRCHSWQNRPVRKVTYLQNGKGKKYFHENSELLIPKATHNDSGSYFCRGLIGHNNKSSASFRISLGDPGSPSMFPPWHQITFCLLIGLLFAIDTVLYFSVRRGLQSPVADYEEPKIQWSKEPQDK
As to B3, the equilibrium dissociation constant (Kd) in assay [6] is 39 nM; in assay [7], 18 nM.
